Experiment: soluble on expression in E. coli; label from the status in PepcDB or PDB records

Sequence	soluble on expression in E. coli
MSDKKVFILSGARTPIGAYRGSFANFGAVELGTVAAKAAIERSGVAPEKIEEVIGGCVLPAGLGQNVTRQISLSAGLPVTTQAVTVNKVCSSSMKALVTAAVEIKAGYYDTILVVGTENMSQVPFYVPRGEIPFGGIQMTDGISKDGLEDIKEKGPMGLCAEKTVKDYGITREEQDAYAIESYKKASNAWSSEKFSEEVVPVSVKTSRSEVVITEDEEYKKLIESKVSSLKPVFVRDGTGTITPANASSLNDGAVATVVVGENALPQGAHPLAELVAFAEAGRAPIDFTVAPVDAVRLLLKKSGLQVSDIALWELNEAFAVTVLAFIKELNIEPSVVNVKGGAVAIGHPLGMSGLRIVNSLAYSLAPGQLGVAAICNGGGEATAVLIKKL	not soluble
MSTGDSFETRFEKMDNLLRDPKSEVNSDCLLDGLDALVYDLDFPALRKNKNIDNFLSRYKDTINKIRDLRMKAEDYEVVKVIGRGAFGEVQLVRHKSTRKVYAMKLLSKFEMIKRSDSAFFWEERDIMAFANSPWVVQLFYAFQDDRYLYMVMEYMPGGDLVNLMSNYDVPEKWARFYTAEVVLALDAIHSMGFIHRDVKPDNMLLDKSGHLKLADFGTCMKMNKEGMVRCDTAVGTPDYISPEVLKSQGGDGYYGRECDWWSVGVFLYEMLVGDTPFYADSLVGTYSKIMNHKNSLTFPDDNDISKEAKNLICAFLTDREVRLGRNGVEEIKRHLFFKNDQWAWETLRDTVAPVVPDLSSDIDTSNFDDLEEDKGEEETFPIPKAFVGNQLPFVGFTYYSNRRYL	soluble
MAHHHHHHMNEAAPFCVAPQTWQGGLARYPVSQSHVWNNNIILQPEDIDVEVFNAMSQVESQYNKNEISVEDFEMLQLTFCLFTVNQSCYDLIPNGREIRVTQANAFEFFQRVHAAYDNMKQRPALNQPTQSNHRPRLRTSGTRLRLTGQDTDSLEWIRWTAQNNPAALAFHPDEPLRWAVVPRSRDFMIRVQPEGENTFVDPDHLTLFLDMLAVLLTEIERAISVFGYYPPNCVSAAPVECADEYSIYTSHTTRATRLPFPSQRVNSRGFSALHKFPMPVTAAAAAAAAAATEQNRRTVRRASSADLENQRALCSPTHDTGGLLAPFQEWNV	not soluble
MGSDKIHHHHHHMATTIKNRYEFVLFFDVENGNPNGDPDADNMPRIDPETSFGLVSDVCIKRKIRNYVALLKENEDDYQIYVQEKAVLNNQHKKAYEHFKIKPESKKLPKDTAQAEAITQFMCKNFYDIRTFGAVMTTEVNCGQVRGPVQLGFSRSLDPIVPQEITITRMAVTNERDLEKERTMGRKHIVNYALYRAEGFISAPLADKTGFSEEDLELLWDALINMFDHDRSAARGKMSSRKLYVFKHDSKLGNAPASILFDAITVKKINGNKPVRNFSDYEISVTGNEIPQGVEVLELL	not soluble
MPPLTHQSLKCVIKHLEANARIQLSQRCPSLHKTEKLIPLTIYNLELDQCSVKINNTDYSLTLTSNNFSSPFDLDQFGAIDLDEVDVDGNDVLVDNRSFKEEKNRLLRMRIEIRKMPDGVEKQEATAAVVALEQLEDNRWLRREPTSSSMMNLSINSQFIIFRGEKLCYNMKLHQAFRYLVAKLFSGRRCPIQVKKLSVECKGILRVPADLRFKVSHLEILGSGVDKIVEAFKPLIGRIQTITVNDDFNISHPIFQTALILKNPNENLFGAASASNVRVENNEQFSSLSERVVDLIRIWQSHGHKIGTIWNFSMRSQEQALDSIMYLRRQLGASFSGHKNLSQYGRSAAISLNNSDEIYVSFKQQQIKVWNLKVVVRRKRL	not soluble
MSLSEVLDLDGELNLLVWNIYKQNRANWSTQLTELSRDQQLLLLQEANMTPAFKEWIHQLGWDGTQARAFEAFGETAGVINLAKVMPTMACAYTQLEPWLRLPKSAIYARYRLSDGQELVVVNLHAVNFTYGTQEYQQQLIALLDELRDFTGPVIVAGDFNSWSEARMALLSTQLASVGLQEVRFSPDNRTTFINGLPLDHVFYRGLQLEKAEAPISDASDHNPLLVRFRLLNEGHHHHHH	soluble
MAPKRLMVEHALARAKEAAGLADVKKVYTYYGDEACTVFIGRTKQGKAVVVWVPEKKGSVVVKGVDSGISEAEARAILQRDRRPRRIIDATLGMEKGVPLWELTYIDAEGRYSFYYLHFADGAFLKRYSFQQ	not soluble
MAIQTSNLGYPRIGLQREWKKTLEAFWSNKINEEQFLTTMKEIRLQHVKVQQEKGIELIPIGDFTYYDHVLDTAYMLGFIPSRFSEFTSYLDVYFAMARGSKDHVASEMTKWFNTNYHYIVPEYEEGLQISLKDNRPLRLYEEAKQELGVDGKPVILGPYTFLKLAKGYTQEQFATILKQLVAPYVQLLSELHAAGAQIIQVDEPIFASLTKEEVQQAKEIYEAIRKEVPNATLLLQTYFDSVEENYEEIITFPVSSIGLDFVHGKEGNLNAISKYGFPADKTLAVGCIDGRNIWRADLDEVLTLFTTLQKQVQTKDLIVQPSCSLLHTPIDKTEETHLSTELFDALAFANQKLEELVLIHSALTQGTESISNELETYRNVHHTIRSSAARNREDVKAARTALKEEDFSRPLPFEKRYELQQVALKLPLLPTTTIGSFPQTTEVRQTRKEWRNGIISNEQYEQFIEKETEKWIRYQEEIGLDVLVHGEFERTDMVEYFGERLAGFSFTKNGWVQSYGSRCVKPPVIYGDVAFINGMTIKETVYAQSLTEKVVKGMLTGPVTILNWSFVRNDIPRKEVSYQIALALRHEIELLESSGIRVIQVDEPALREGMPLKEKDWDAYITWAVQSFLLATSSVANETQIHTHMCYSNFEDIVDAIRALDADVISIETSRSHGEFIDTLKHTTYEKGIGLGVYDIHSPRVPSKDEMYKIVEQSLQVCDPKYFWINPDCGLKTRRTEEVIPALEHMVQAAKDARSLLKTNA	not soluble
MGSDKIHHHHHHMQVYPLIMNKLVMPAASRFTDLKIWDEYKVMLKSERLSLEQLRQMQLTKLQTIVRHAYENVPFYRQRFDSIGLHPEDIKSIEDIERIPPTTKDDIMANFPEGITAGGMDRNRWKYVASSGTTRKIMGIHDFRKSTLNWAAGIRAHRLAGNHRMGMKWMEIPPHMCTTICGINDGPKGEKLSTKKLVSLVKEGDFGGAGRHVYEGLYSMRHDLYKRVTLPSFGPEGTNIPESDIVSYLDSIRSYQPHLLEGLPLYLYTFAKYILDKGISAPRVGVIKPFGGSLTPYMKQIIATAFGCEVYDTYGCSELGFMAADCPKHEGVHLFMDLYHVEVRHGDRAAAPGELGKFYVTDLENRAMPWIRYEIGDVGRYFEDDHGCGRRGIRLEVEGRVQDTLVNSQGRFFTSDEVFDFFHRREEIDNFQLTEKSAGRYELLCVPVEGKEVDREGIARDFREFFDTEANVKAYAVKTIKAEDGGKFRFIKAKGHDRL	not soluble
MLNGKNKSAVNRQRFLKRHKEQIKESVADAVNRRSITNTETGEDVSIPHKDINEPIFHQGKGGVRERVHPGNDQFITGDKIERPKGGGQGSGSGEGNASPDGEGQDEFVFQISKDEYLDILFEDLELPNLEKNQIAKITEWKTHRAGFQTAGIPSNISVIRSLQQSLARRTAMTAGKKRLLKELEDELTRIKNIEPAQQLEENRLKKEIEELRKKIENVPFIDTFDLRFKNYEKRPVPSSQAVMFCLMDVSGSMDQATKDIAKRFYVLLYLFLTRTYENVDVVFIRHHTQAKEVDEHEFFYSQETGGTIVSSALKLMDEIVKERYPVGQWNIYAAQASDGDNWADDSPRCRDLLVNKLLPNCQYYSYIEITRRSHQTLWHEYEKLTDEFPNFAMKNIRSVEDIFPVFRELFQKETALEHHHHHH	not soluble
MGEQQLDCALDLMRRLPPQHCDKNLTDLIDLCPHLVDDLLSTIDQPLKIAADRETGKQYLLCDYNRDGDSYRSPWSNTYDPPLEDGQLPSEKRRKMEIEANAAFESYRDLYFEGGVSSVYFWDLDNGGFAGIVLIKKEGDGAKNITGCWDSIHVIEITERARQAHYKLTSTIMLWLQTNKSSSGVMNLGGSLTRQHEMDAPINDQNTHLANMGRMIEDQESKMRLTINEIYFGKTKKVMSDLRSTEKQSELEKQDEIVRELNNAMANRGN	soluble
MKPAYPPLLLQMSPAYTPRPLKNLFTANQCWAHLIEEGGLRDIEVESVTKMLACGTSILGVKHYTCGNHSCPHVKYLCNTCSCRACPSCGKKATDQWIANQQHRLPECTWQHLVFTLPDTLWPLFFHNRHWLDALCRLAVDNLLYAGRRRGVEVGVFCAIHTYGRRLNWHPHIHVSVTLGGIDDAGVWKDLSFHPSALRRRWMWNVRQYLLSQWEHTTVPPENAHLQSENDWRHLVLNAGGQHWHIHLSKKTKNGKKTVNYLGRYLKKPPISGSRLAHYTSGATLSFTYLDHRTKTYQQETLSQTDMLRRVVQHIPEKHFRMIRYFGFLANRVCGRQLPRVYEAIRMERRGKAPKLYFAQMSKAFLHRDPFSCVLCGARMVYTAAIAGLTVQGLINNAQSIAQLRYVPA	not soluble
GPGSMLDEVLHSRVVQALLGALVMRELYSDAAVLLASVPPVLDTGGDTSSKDFGGIPSPLLVATRQDTLASLASFRQCVAARRWVEAVQIIDGSATAQSWAQATPLCAMVAFVRLEMDDPKAARALLLPYLASLPEPPSWEALSTAPVEHAQLWDNFTSHYVFSTTLLAKASFMSGSAYLNISAALLQRALRLSPSYAPARLFAEFVLSFEAQQQHVDAAVSASDYPKVLSVTAEMLRMPEVTRLVRAELYLVRTQAQWMRGQPLEVVHEASRCEQCDPQCALAFRLRADAFAMMSRETEAAADLAVAKHLNARVGALFDELQVQRSRRNAAQVEAKAKRNSVPAFKSFPSASAPLRSSATESFCGSTRRSGAQARMSTDTELSPSLRTHYDVLGVSSNASEAEIRRRYRRLTLQLHPDRLVGAAESDRRAALEAFQLLGNAYSVLSDTQLRATYDAGLPGLH	not soluble
MNDSILEPKHRGNVREIAAIDLGSNSFHMIVARIVNGSIQVLSRLKQKVKLAEGLDENAVLNQEAITRGVNCLALFAERLQGFPMENVNVVGTYTLRRAVNNDEFLRQAAKVFPYPINIISGQTEAKTIYAGVCHTQPEKGRKLVIDIGGGSTEMIIGDDFTPLMAESRHMGCVSFATQFFTDGIISPENFQRARQSAVNKIEDLGLEYRKLGWQSVLGSSGTIKTVAQVIATNLDPNGTITAERLNALIEQTLQAKHFTELNINGLNQDRVDVFVPGLAILSAVFDVFHIQQMRYSDGALREGVIYSLEKNFQVADIRASTALEHHHHHH	not soluble
VAKQRPDGIRAYEDPAGGWGALKALAVALKDQQLVVEGIPTLLKQNQPEGFDCPGCAWPDPKHTSAFEFCENGAKAVTWESTPKRVGPDFFAQHTVTSLWECSDYWLEDQGRLTHPMRYDAQTDKYEPVDWQVAFDDIAAKLDALDDPNQLELYTSGRASNEAAFLFQLFGRQFGTNNFPDCSNMCHEPTSVGLPRSIGIGKGTVTLDDFDKAELIISMGHNPGTNHPRMMTPLRNASRRGVKIIVLNPLKERALERFEAPQAPLEMATTSSTPIASCYFQVKVGGDAAALKGICKALVAADKVARAADLAPLLDHTFIVGHTAGFDALVDDLEGCSWSAIERASGLPRADMERIAADYAASNATIVCYGMGITQHVTGTANVQQIANLLLLKGNIGKPGAGICPLRGHSNVQGDRTVGITERPSEAFLDRLRDVFGFEPPRAFGHSVVDSIAAMRDGRAKAVICLGGNLAMAASDPQACFKGFRRLDLAVHLATKLNRTHLLTSKTTYLFPVLGRTDSDIQASGRQALTVEDSMSMVHASRGFLTPPSDQVRSEVAILAGIAKATLRSKSRVDWDALAGNYDLIRDAIEEVFPDFEAYNDRIRKPGGFQLPNSAAMRIWNTPTGKANFAIFAGLEEDETSTDRDVLRMTSLRAHDQYNTTIYGLNDRYRGVFGRRDVLFLNPKDLARLGFAEGDVVDVATALDYARPDRVVQALTLVSYNLPDGCCASYYPEIQPLVALEFRDPECLTPSYKSIPVKVTAARAPLAADRAVGRDGIVGREPGVETATGPSPVSLID	soluble

From the DeepSol protein solubility set
